Assay: yeast display, Sf9 membrane polyspecificity reagent, FACS + sequencing; frameworks hold sequencing errors
Summary of the method: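 Polyreactivity labels are assigned by the sorting gate from which each nanobody was recovered. The gates were low and high (top ~1%), set on anti-HA fluorescence for expression and streptavidin fluorescence for reagent binding. Before sorting, galactose-induced (36–48 hours) yeast display cells were stained for 1 hour at 4 °C with 10% biotinylated, detergent-solubilized Sf9 membrane reagent.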

Sequence	polyreactivity (PSR sort gate)
QVQLVESGGGLVQAGGSLRLSCAASGYTFTINAMGWYRQAPGKERELVAAISWNGGRTYYADSVKGRFTISRDNAKNTDYVQMNSLQPEDTAVCYCNADTYSAGDYWGQGTQVTVSS	high polyreactivity
QVQLVESGGGLVQAGGSLRLSCAASGYTFTIYSMGWYRQAPGKERELVAAISWNGGRTYYADSVKGRFTISRDNAKNTVYLKMNSLKPEDTAVYDCNADNFSAGDYWGQGTQVTVSS	high polyreactivity
QVQLVESGGGLVQAGGSLRLSCAASGYTFTQNAMGWYRQAPGKERELVASITSGGSTDYADSVKGRFTISRDNAKNTVYLQMNSLKPEDTAVYYCAKDYYAYSDYDYWGQGTQVTVSS	low polyreactivity
QVQLVESGGGLVQAGGSLRLSCAASGYTFVDNAMGRYRQAPGKERELVAAINWDGASTYADSVKGRFTISRDNAKNTVYLQMNSLKPEDTAVYYCTASGKDIFNYVYQGYDYWGQGTQVTVSS	low polyreactivity
QVQLVESGGGLVQAGGSLRLSCAASGYTFVGYAMGWYRQAPGKERELVASISTGDSTYYADSVKGRFTISRDNAKNTVYLQMNSLKPEDTAVYYCAADFWEYEYPYDYWGQGTQVTVSS	low polyreactivity
QVQLVESGGGLVQAGGSLRLSCAASGYTFVYYAMGWYRQAPGKERELVAAITGNSGSTYADSVKGRFTISRDNAKNTVYLQMNSLNPEDTAVYYCAADQTGQDWYYVEFDYWGQGTQVTVSS	low polyreactivity
QVQLVESGGGLVQAGGSLRLSCAASGYTFWANAMGRYRQAPGKERELVAAISWTGGSTYYADSVKGRFTISRDNAKNTVYLQMNSLKPEDTAVYYCNRARINTRVQTDDYWGQGTQVTVSS	high polyreactivity
QVQLVESGGGLVQAGGSLRLSCAASGYTFWAYAMGWYRQAPGKERELVAAITYRGGSTYYADSVKGRFTISRDNAKNTVYLQMNSLKPEDTAVYYCAAEGYYTGYWDLYDYWGQGTQVTVSS	high polyreactivity
QVQLVESGGGLVQAGGSLRLSCAASGYTFWAYTMGWSRQAPGKERELVAAISFSGGSTYYADSVKGRFTISRDNAKNTVYLLMNSLKPEDTAVYYCAADYLIEMDYWGQGTQVTVSS	low polyreactivity
QVQLVESGGGLVQAGGSLRLSCAASGYTFWHYAMGWYRQAPGKEREFVATISSGGSTYYADSVKGRFTISRDNAMNTVYLQMNSLKPEDTAVYYCAADVDYIGPIYDYWGQGTQVTVSS	low polyreactivity
QVQLVESGGGLVQAGGSLRLSCAASGYTFWRYAMGWYRQAPGKERELVAAISASGGSTYYADSVKGRFTISRDNAKNTVYLQMNSLKPEDTAVYYCNAVSAYSYYVNYDYWGQGTQVTVSS	high polyreactivity
QVQLVESGGGLVQAGGSLRLSCAASGYTFYANAMGWYRQAPGKEREFVASITWSGGSTYYADSVKGRFTISRDNAKNNVYLQMHSLKPEDTAVYYCAAESWFKYDYWGQGTQVTVSS	low polyreactivity
QVQLVESGGGLVQAGGSLRLSCAASGYTFYANAMGWYRQAPGKEREFVASITWSGGSTYYPDSVKGRFTISRDNAKNTVYLQMNSLKPEDTAVYYCAAESWFKYDYWGQGTQETVSS	low polyreactivity
QVQLVESGGGLVQAGGSLRLSCAASGYTFYLYAMGWYRQAPGKESELVAAISTNGGRTYYADSVKGRFTISRDNAKNTVYLQMNSLKPEDTAVYYCAVRSRGTAPQYYYWGQGTQVTVSS	high polyreactivity
QVQLVESGGGLVQAGGSLRLSCAASGYTFYPYAMGWYRQAPGKERELVAAISYSGGRTYYADSVKGRFTISRDNAKNTVYLQMNSLKPEDTAVYYCAADSGRYRMYYWGQGTQVTVSS	high polyreactivity
QVQLVESGGGLVQAGGSLRLSCAASGYTFYQNAMGWYRQAPGKERELVAAITFRTGSTYYADSVKGRFTISRDNAKNTVYLQMNSLKPEDTAVYYCAATRFLRYWWYGYWGQGTQVTVSS	low polyreactivity
QVQLVESGGGLVQAGGSLRLSCAASGYTFYYYAMGWYRQAPGKEREFVAAISWRGGRTYYADSVKGRFTISRDNAKNTVYLQMNSLKPEDTAVYYCAARRDGWTFWKYDYWGQGTQVTVSS	high polyreactivity
QVQLVESGGGLVQAGGSLRLSCAASGYTIFSYGMGWYRQAPGKERELVAAISSGDRTNYADSVKGRFTISRDNAKNTVYLQMNSLKPEDTAVYYCNADRASSSVGYSDDFGHDSWGQGTQVTVSS	low polyreactivity
QVQLVESGGGLVQAGGSLRLSCAASGYTIRKNAMGWYRQAPGKERELVAAMSRSGGSTYYADSVKGRFTISRDNAKNIVYLQMNSLKPEDTAVYYCNTRYPYYWPMYGYWGQGTQVTVSS	high polyreactivity
QVQLVESGGGLVQAGGSLRLSCAASGYTIRYNALGWYRQAPGKERELVAAITQRSGSTYADSVKGRFTISRDNAKNTVYLQMNSLKPEDTAVYYCAARTPGYKLYDYWGQGTQVTVSS	low polyreactivity
QVQLVESGGGLVQAGGSLRLSCAASGYTIYSYAMGWYRQAPGKERELVAAITESGARTYYADSVKGRFTISRDNAKNTVYLLMNSLKPEDSAVYYCAADYAWPLRVTGDYWGQGTQVTVSS	low polyreactivity
QVQLVESGGGLVQAGGSLRLSCAASGYTLGSYAMGWYRQAPGKERELVATITWGGGSTDYADSVKGRFTISRDNAKNTVYLQMNSLKPEDTAVYYCAAEDDSYDVEGSLYYWGQGTQVTVSS	low polyreactivity

Sequence	polyreactivity (PSR sort gate)
QVQLVESGGGLVQAGGSLRLSCAASGYTLRPNGMGWYRPAPGKERELVAAISSGGSTYYADSVKGRFTISRDNAKNTVYLQMNSLKPEDTAVYYCAAEYWYDYWGQGTQVTVSS	low polyreactivity
QVQLVESGGGLVQAGGSLRLSCAASGYTLSFNAMGWYRQAPGKARELVAGITYSGGSTYYSDSVKGRFTISRDNAKNTVYLQMTSLKPEDTAVYYCNKASGVYYGHLDYWGQGTQVTVSS	low polyreactivity
QVQLVESGGGLVQAGGSLRLSCAASGYTLTPYTMGWYRQAPGKERELVAAINRSGGSTYYADSVKGRFTISRDNAKNTVYLQMNSLKPEDTAVYYCAAYGYYNFGYYYWGQGTQVTVSS	high polyreactivity
QVQLVESGGGLVQAGGSLRLSCAASGYTLYPNAMGRYRQAPGKERELVAAISSGSSTYADSLKGRFTISRDNAKNTVYLQMNSLKPVDTAVYYCNADARIHYDYWGQGTQVTVSS	low polyreactivity
QVQLVESGGGLVQAGGSLRLSCAASGYTMGWYRQAPGKEREYGAAINQTGGSTYADSVKGRFTISRDNAKNTVYLQMNSLKPEDTAVYYCATDPAYWGDQPPEYDYWGQGTQVTVSS	low polyreactivity
QVQLVESGGGLVQAGGSLRLSCAASGYTVLYAIGWYRQAPRKDRELVAAISSRTGTTYYADSVKGRFTISRDNAKNSVYLQMNSLKREDTAVYYCNVEYFYYFRENGDYWGQGTQVTVSS	low polyreactivity
QVQLVESGGGLVQAGGSLRLSCAASGYTVRFNAMGWYRQAPGKEREFVAAIDFGGAGTYYADSVKGRFTISRDNAKNTVYLQMNSLKPEDTAVYYCNARDGVTTEFDYWGQGTQVTVSS	low polyreactivity
QVQLVESGGGLVQAGGSLRLSCAASISSINAMGWYRQAPAKEREVVAASRWSGSSTYYADSVKGRFTISRDNAKNTVYLQMNSLKPEDTAGYYCAADTTTGDRGFDYWGQGTQVTVSS	high polyreactivity
QVQLVESGGGLVQAGGSLRLSCAASKESINAMGWYRQAPGKERELVAAIGWSGSSTYYADSVKGRFTISRDNAKNTVYLQMNSLKPEDTAVYYCAADTTTGDRGFDYWGQGTQVTVSS	high polyreactivity
QVQLVESGGGLVQAGGSLRLSCAASLRTFAWYAMGWYRQAPGKERELVAAITNRGSGTYYADSVKGRFTISRDNAKNTVYLQMNSLKPEDTAVYYCAKDPITATTLDERVFYWGQGTQVTLSS	low polyreactivity
QVQLVESGGGLVQAGGSLRLSCAASRITFSLYAMGWYRQAPGKERELGAAISRGGSTKYADSVKGRFTISRDNAKNTVYLQMNSLKPEDTAVYYCNASARTYGGQTWNYYWGQGTQVTVSS	high polyreactivity
QVQLVESGGGLVQAGGSLRLSCAASRITFYSYAMGWYRQAPGKERELVAAITFRGTSTYYADSVKGRFTISRDNAKNTVYLQMNSQKPEDTAVYYCAAYSGQARGYDYWGQGTQVTVSS	high polyreactivity
QVQLVESGGGLVQAGGSLRLSCAASRPIFYANAKGGYRQAPGKEREFVATIRRGTSTNYADSVKGRFTISRDNAKNTVYLQMNSLKPEDTAVYYCAVVSNGRRERYYYWGQGTQVTVSS	low polyreactivity
QVQLVESGGGLVQAGGSLRLSCAASRRIFGFYAMGWYRQAPGKERELVADINWSATSTYYADSVKGRFTISRDTAKNTVYLQMNSLKPEDTAVYYCAADVSYRYYWGQGTQVTVSS	low polyreactivity
QVQLVESGGGLVQAGGSLRLSCAASRRIFSDNAMGWNRKAPGKERELVAAITFRDGSTYADSVKGRFTISRDNAKNTVYLPMNSLKPEDTAVYYCNRRSQVHSHSKHDYWGQGTQVTVSS	low polyreactivity
QVQLVESGGGLVQAGGSLRLSCAASRRIFYWYAMGWYRQAPGKEREWVAAITWSGGSTYYADSVKGRFTISLDNAKNTVYLQMNSLKREDTAVYFCNAEVYWDVYPGLYYYDIYDYWGQGNQVTVSS	low polyreactivity
QVQLVESGGGLVQAGGSLRLSCAASRRTFNGNAMGWYRQAPGKETELVATITSSAGTTYYADSVKGRFTISRDNAKNTVYLQMNSLKPEDTAVYYCAKRIWRSYPYRPYYSEFGYWGQGTQVTVSS	high polyreactivity
QVQLVESGGGLVQAGGSLRLSCAASRRTFSQYAMGWYRQAHGKERELVAAITSARSTYYADSVKGRFTISRDNAKNTVYLQMNSLKPEDTAVYYCAAYIRFRSNWGQGTQVTVSS	high polyreactivity
QVQLVESGGGLVQAGGSLRLSCAASRRTFYEYAMGWYRQAPGKERELVAAITRSGGSTYYADSVKGRFTISRDNAKNTVYLQMNSLKPEDTAVYYCAAYRHQYRVRYYTAYDYWGQGTQVTVSS	high polyreactivity
QVQLVESGGGLVQAGGSLRLSCAASRSIFAGNAMVWYRQSPGKERELVAGITFGDDSTYYADSVKGRFTISRDNAKNTVYLQMNSLKPEVTAVYYCATDLHPYNYYFYHYWVDAAYDYLGQGTQVTVSS	low polyreactivity
QVQLVESGGGLVQAGGSLRLSCAASRSTFEGYAMGLYRQAPGKERELVAAITVSVGSTYYADSVKGRFTISRDNAKNTVYLQMNSLKPEDTAVYYCAADYDYQYRYYYWGQGTQVTVSS	low polyreactivity

Reference: the nanobody polyreactivity screen of Harvey et al. (2022)
